T1: recombinant wild-type pro-ghrelin-His8 (mouse, UniProt Q9EQX0 24-117)
T1 sequence: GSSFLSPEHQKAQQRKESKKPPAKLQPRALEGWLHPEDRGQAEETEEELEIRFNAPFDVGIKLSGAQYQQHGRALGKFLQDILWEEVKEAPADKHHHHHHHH

T2: recombinant wild-type pro-ghrelin-His8, Q9EQX0
T2 chain: T1 sequence

B1: mouse ghrelin O-acyltransferase (GOAT) (enzyme)
chain: MDWLQLFFLHPLSFYQGAAFPFALLFNYLCILDTFSTRARYLFLLAGGGVLAFAAMGPYSLLIFIPALCAVALVSFLSPQEVHRLTFFFQMGWQTLCHLGLHYTEYYLGEPPPVRFYITLSSLMLLTQRVTSLSLDICEGKVEAPRRGIRSKSSFSEHLWDALPHFSYLLFFPALLGGSLCSFRRFQACVQRSSSLYPSISFRALTWRGLQILGLECLKVALRSAVSAGAGLDDCQRLECIYLMWSTAWLFKLTYYSHWILDDSLLHAAGFGAEAGQGPGEEGYVPDVDIWTLETTHRISLFARQWNRSTALWLRRLVFRKSRRWPLLQTFAFSAWWHGLHPGQVFGFLCWSVMVKADYLIHTFANVCIRSWPLRLLYRALTWAHTQLIIAYIMLAVEGRSLSSLCQLCCSYNSLFPVMYGLLLFLLAERKDKRN

Assays:
[1] = molecular target: T1, recombinant wild-type pro-ghrelin-His8; experiment: cell-based or functional assay
[2] = molecular target: T2, recombinant wild-type pro-ghrelin-His8, …

Row | Molecule | acylating activity of GOAT in Sf9 membranes against that in INS-1 cell membranes [1] | amount of [3H]octanoyl pro-ghrelin formed, in vitro assay with Sf9 membranes, against S3A mutant pro-ghrelin as substrate [2] | 3H-radioactivity covalently linked to pro-ghrelin, in vitro assay with [3H]octanoyl CoA and INS-1 cell membranes, against mock-transfected membranes [1]
1 | GOAT expressed in Sf9 insect cells from pFastBac HT-A (His10-tag) (from UniProt P0C7A3 1-435) (enzyme) | 5 fold | – | –
2 | B1 | – | more than 5-fold higher than when the S3A mutant pro-ghrelin was used as the substrate | 5 fold
